This note sets out measurements from PMC2911679.

Read-outs that look alike come from different tables or passages of the source.

Common to all, as to assay: AlphaScreen or HTRF
For orientation: In Alpha technology, singlet oxygen from a donor bead excites a nearby acceptor bead.

The target of test [1] is His6-tagged GFP–SRY-HMG F67V (SRY residues 55–141) (human) (UniProt Q05066).
The target of test [2] is His6-tagged GFP–SRY-HMG M64T (SRY residues 55–141) (human) (UniProt Q05066).
The target in test [3] is His6-tagged GFP–SRY-HMG R76P (SRY residues 55–141) (human) (UniProt Q05066).
For test [4] the target is unchanged. This is another data set of the same source.

With “biotin-labelled calmodulin (CaM) (from UniProt P0DP23 1-149) (natural protein)”, the Kd in test [1] is 1.25 nM; in test [2], 2.05 nM; in test [3] it was 1.18 nM; in test [4] it was 2.05 nM.

The Kd is the constant that tells how readily two partners part at equilibrium.
